The assay concerns the target angiotensin converting enzyme 2 (ACE2) (human (endogenous in BCi.NS1.1)) (UniProt Q9BYF1).
Chain of UniProt Q9BYF1 (Q9BYF1 18-805): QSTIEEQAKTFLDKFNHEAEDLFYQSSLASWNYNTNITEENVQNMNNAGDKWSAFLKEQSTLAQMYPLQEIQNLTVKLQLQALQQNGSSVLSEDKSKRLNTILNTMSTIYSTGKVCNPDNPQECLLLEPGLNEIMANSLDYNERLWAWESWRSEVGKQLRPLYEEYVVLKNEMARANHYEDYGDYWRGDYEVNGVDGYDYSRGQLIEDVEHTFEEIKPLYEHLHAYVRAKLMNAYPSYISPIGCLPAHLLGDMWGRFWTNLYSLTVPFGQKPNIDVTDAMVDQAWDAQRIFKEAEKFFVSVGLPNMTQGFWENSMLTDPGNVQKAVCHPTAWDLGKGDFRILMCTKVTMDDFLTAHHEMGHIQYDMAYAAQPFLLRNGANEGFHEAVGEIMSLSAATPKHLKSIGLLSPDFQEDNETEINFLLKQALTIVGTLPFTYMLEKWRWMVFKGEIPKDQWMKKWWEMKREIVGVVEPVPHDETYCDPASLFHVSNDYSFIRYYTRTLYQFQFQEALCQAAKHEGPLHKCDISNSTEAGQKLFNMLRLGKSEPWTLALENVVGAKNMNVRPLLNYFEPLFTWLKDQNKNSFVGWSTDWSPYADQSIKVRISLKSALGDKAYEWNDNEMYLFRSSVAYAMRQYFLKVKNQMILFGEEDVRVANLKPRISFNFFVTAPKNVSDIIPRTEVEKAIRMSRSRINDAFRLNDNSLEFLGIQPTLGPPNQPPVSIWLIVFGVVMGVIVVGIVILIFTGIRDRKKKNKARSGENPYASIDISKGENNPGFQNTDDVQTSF

As to “Wuhan-Hu-1 [S1S2] spike protein (natural protein)”, the Ki for reduction of cAMP-activated CFTR chloride channel activity (Ussing chamber, differentiated BCi.NS1.1 epithelia) came to 0.446 mg/L.

The substance “β-1.351 [S1S2] spike protein (natural protein)” returned a Ki for reduction of cAMP-activated CFTR chloride channel activity (Ussing chamber, differentiated BCi.NS1.1 epithelia) of 0.21 mg/L.

(Values after publication PMC11266487.)
